These results are taken from patent US20200270365A1.

Assay [1] has as its target biotin-PCSK9-his (human) (UniProt Q8NBP7). Put plainly: competitive ELISA, one antibody coated, biotin-PCSK9-his + 50-fold competing antibody; competitor h011-3133-YTE. Background: ELISA stands for enzyme-linked immunosorbent assay.
For assay [2] the target is unchanged. Put plainly: competitive ELISA, one antibody coated, biotin-PCSK9-his + 50-fold competing antibody; competitor 21B12 (itself).

In the case of “21B12 (U.S. Pat. No. 8,030,457B2) (antibody)”, the IR (%) with biotin-PCSK9-his (human) [1] turned out to be 3.01%; in the assay with biotin-PCSK9-his (human) [2] it was 97.8%.
